The source of these data is article PMC6607443, “Systematic identification of recognition motifs for the hub protein LC8” (Life Science Alliance, 2019).

This assay addresses dynein light chain LC8 (UniProt P63167 1-89). Put plainly: ITC; peptide (500 μM) injected into 25 μM LC8 in the cell; 25°C; 50 mM sodium phosphate, 50 mM NaCl, 1 mM sodium azide, 5 mM β-mercaptoethanol, pH 7.5; single-site model; averages of two to three experiments. Particulars: both partners purified. Background: ITC needs no label: the signal is the heat of the interaction.

In general, stoichiometry N refers to a count of units in the complex or per binding partner. As a reminder, the Kd is the concentration at which binding is half-saturated.

dynein light chain LC8, sequence (P63167 whole entry): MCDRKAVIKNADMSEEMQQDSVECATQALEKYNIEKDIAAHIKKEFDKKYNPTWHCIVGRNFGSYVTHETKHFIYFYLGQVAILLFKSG

As for SSSTRSIDTQTPSV [GLCCI1 peptide], the “stoichiometry N” value turned out to be 1 peptide per LC8 chain.
DDSGGNATTQTTSD [ROR1 peptide] returned a Kd greater than 25 µM.
GQGAALTTATQTTHLE [GP1BA peptide] displayed a Kd greater than 25 µM.
With YDSMDHLDKQTQTPKT [CCL2 peptide], the “stoichiometry N” value is 1 peptide per LC8 chain.
On to SQNHWTRSTQTTRE [MUC4 peptide (SQNHWTRSTQTTRE)], for which the “stoichiometry N” value worked out at 1 peptide per LC8 chain.
As for SPSPTGLPTQTPGF [ARAP3 peptide], the Kd is greater than 25 µM.
AKESCNMETQTSST [OFD1 peptide]: the “stoichiometry N” value is 1 peptide per LC8 chain.
As to PAPPSYSDKGVQTPSK [ZFPM1 peptide], the “stoichiometry N” value amounted to 1 peptide per LC8 chain.
For PVLTSATGTQTSPA [MUC3A peptide], the “stoichiometry N” value amounted to 1 peptide per LC8 chain.
The same measure, in the same setting: under YGCTRHQSVQTEDG [MAST1 peptide] stands 1 peptide per LC8 chain; under NQSFTTASTQTPPQ [CAPRIN2 peptide], 1 peptide per LC8 chain; under HPETQDSSTQTDTS [SPAG5 peptide], 1 peptide per LC8 chain.
For the molecule DDHSREKGTQTSGD [SLC9A2 peptide], the “stoichiometry N” value worked out at 1 peptide per LC8 chain.
The same measure, in the same setting: under QDFMKHLDKKTQTPKL [CCL7 peptide] stands 1 peptide per LC8 chain; under ARAGRSVSTQTGSM [CIZ1 peptide], 1 peptide per LC8 chain.
In the case of EKELRHIGTQISSD [ICE1 peptide], the “stoichiometry N” value is 1 peptide per LC8 chain.
Same read-out and setting: next, DDNHWTRSTQTTRE [MUC4 peptide with N-terminal aspartates (DDNHWTRSTQTTRE)]: 1 peptide per LC8 chain.
With SKTQQTFGSQTECT [TOGARAM1 peptide], the Kd was greater than 25 µM.

B1: bassoon (BSN) peptide, modified version with the TQT motif near the C-terminus (peptide)
peptide: PRATAEFSTQTPSP
notes: also called BSN^II; modified BSN peptide
Turning to B1, the “stoichiometry N” value was 1 peptide per LC8 chain.
APMSCDKSTQTPSP [BCL2L11 peptide]: the affinity, expressed as Kd, was 0.16 µM and the “stoichiometry N” value was 1 peptide per LC8 chain.
Regarding YSRKSRCVSVQTDPT [SON peptide], the “stoichiometry N” value came out at 1 peptide per LC8 chain.
